Measured values as given in patent US20250243261A1.

Assays:
[1] = biological target: SARS-CoV-2 Wuhan Spike on pseudotyped lentivirus (SARS-CoV-2 Wuhan-Hu-1) (UniProt P0DTC2); assay: cell-based or functional assay
[2] = biological target: HA H4 Hubei, A/swine/Hubei/06/2009(H4N1) (Influenza A virus); assay: BLI, Fab
[3] = biological target: HA H7 HK17, A/Hong Kong/125/2017(H7N9) (Influenza A virus); assay: BLI, Fab

LY-1404 WT IgG (antibody), sequence (VH): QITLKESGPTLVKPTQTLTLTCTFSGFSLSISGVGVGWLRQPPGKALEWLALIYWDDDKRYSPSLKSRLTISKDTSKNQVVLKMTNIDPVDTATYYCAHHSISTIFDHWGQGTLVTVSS
LY-1404 WT IgG (antibody), sequence (VL): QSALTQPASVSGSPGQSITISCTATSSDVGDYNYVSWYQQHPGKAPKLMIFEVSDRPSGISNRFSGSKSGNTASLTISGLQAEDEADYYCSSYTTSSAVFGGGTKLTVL

Substance	Wuhan pseudotyped lentivirus IC50 [1]	Kd [2]	Kd [3]
LY-1404 WT IgG (antibody)	3.1 mg/L		
MEDI8852 WT Fab		0.56 nM	0.2 nM
